# In the RNAGym collection of RNA variant scans (doi:10.1073/pnas.2313332121):
# B1: TPR t1 (parent)
# chain: GACCAAUCUGCCCUCAGAGCUCGAGAACAUCUUCGGAUGCAGAGGAGGCAGGCUUCGGUGGCGCGAUAGCGCCAACGUCCUCAACCUCCAAUGCAUCCCACCACAUGAUGAUGCCUGAAGAGCCUUGGUUUUUUG
# Variants of: B1
# Test: polymerase ribozyme fitness, log enrichment relative to wild type (log ratio); higher = more active; in vitro selection for triplet polymerase activity
# Summary of the method: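 One round of in vitro selection, in triplicate, was applied to PCR-built, transcribed mutant libraries of each subunit of a heterodimeric triplet polymerase ribozyme. The steps were annealing with a biotinylated primer, partner subunit and triplets, incubation frozen at −7 °C, gel excision of extended constructs, streptavidin-bead capture and RT-PCR. Fitness is the logarithm, base 2, of genotype enrichment over wild-type enrichment from inverse-variance-weighted replicate averages of Illumina-sequenced inputs and outputs, keeping genotypes with ≥10 input reads and ≥1 read per output.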
row,Variant,polymerase ribozyme fitness (log ratio)
1,G63A U131G,-1.53
2,G63U A84C U130A,-2.23
3,C62U G107C,-5.77
4,G69C G71U C97A A108C U109A,-5.19
5,G63C C70U A90G,0.0962
6,G63U G93U,-1.76
7,A66G C82U C88G C124U,-0.202
8,G69A U78C A84C,-3.57
9,A68G C86U,-2.68
10,G63C U116A C123U,-1.91
11,C64U C88U G122A,-0.852
12,C64U C82U U109A G120U,-6.78
13,G63A G77C A119U,-2.08
14,C64A U78C C123U,-4.49
15,G63C C89U,-1.31
16,A66U A84U C89U U112G,-2.3
17,G69C G113C,-4.05
18,G63A C114U,-2.82
19,G69U C82A C104U,0.152
20,A66U A68G C73A C82A,-4.09
21,G63C C102A,-2.59

row,Variant,polymerase ribozyme fitness (log ratio)
1,G69U C89G,-0.225
2,G63C C101U,-1.5
3,C62U A111C,0.533
4,C62U C104G,-7
5,G69A C124A,-0.616
6,A66U G93C C115U U116C,-5.96
7,A66G G77A C94U C115A U132A,-0.858
8,C64G A84U U112A,-6.14
9,C64U G117A,-1.12
10,C62U G135U,-0.561
11,C64U U92C G113A G127U U131C,-3.48
12,G63U U87A G122U,-1.97
13,G69A C86A C99U G110C,-6.84
14,C62U U78A C89U G117A,-2.6
15,C62U U78G C86U,-0.761
16,G63C C79U G117U,-2.56
17,A66U C94A,-2.12
18,G69A G117U C124A,-4.19
19,G69C C94A U112G C124G,-1.99
20,G69C C85U,-1.8
21,G69C C85A,-2.84

row,Variant,polymerase ribozyme fitness (log ratio)
1,G63A G120A,-0.19
2,C64U G107A,-3.01
3,C62U C89G G93A C101U G113C C114U G127C,-4.42
4,G63C C115U,-1.32
5,G69A G110C U129A,-7.59
6,G63C G65A G117C A119G A121C,-7.02
7,G69A C85A,-4.3
8,G69A G93U A111G G122A,-5.44
9,C62U G63U A103C C114A,-4.66
10,C64U A118U,0.459
11,G65U G71A,-4.69
12,C62U C98A A103C U129C,-6.12
13,C62U C88G C114G,-3.23
14,A66U A84U G110C U130C,-5.62
15,G63C U126G,-1.74
16,C62U G93A,-0.42
17,C64U U106C,-0.52
18,C62U A84C,-1.06
19,G69U C76U G93C U132C,-2.06
20,G63U G77U U78C,-2.41
21,G69U C86U U109A C115G U126A,-7.39

row,Variant,polymerase ribozyme fitness (log ratio)
1,G69U C73G A105U,-4.07
2,G63A U126G,-2.3
3,A66G C72A C79A A84U,-4.61
4,C62U C64U,-0.305
5,C64U A66U C124A,1.13
6,G69A C73G G120U,-5.64
7,A66C G69A,-3.84
8,G69A C79A,-3.99
9,G69A C73U U96G,-3.55
10,G63A C73A C114G,-5.85
11,C64A C82G A121C,-7.17
12,G63U G110U,-3.12
13,G63U G110A,-1.81
14,G63C U130C,-1.1
15,C64U C115A U125A,-0.872
16,A66U C85U G117A,-4.29
17,G69A C82G,-3.32
18,C64A C79U C102A A119G,-7.09
19,G63U G120U G135U,-2.56
20,G63A G93A C97U U130A,-2.59
21,G69A C89G,-5.32
